According to PMC11994318, “In vitro characterization of the yeast DEAH/RHA RNA helicase Dhr1” (The Journal of Biological Chemistry, 2025):
Positions count from the first letter of the chain named. Ends that are not written are not given here. * marks the point of attachment. 6FAM = O=C1OC2(c3ccc(O)cc3Oc3cc(O)ccc32)c2cc(C(=O)*)ccc21

Legend:
ΔN-Dhr1-ΔSKTTD [1] = biological target: T1, ΔN-Dhr1-ΔSKTTD (Saccharomyces cerevisiae, UniProt Q04217 376-665+671-1267, internal_change); assay: fluorescence polarization; no nucleotide; 10 mM Mg2+; 40 mM Tris-HCl pH 8.0, 40 mM KCl, 150 mM NaCl, 2 mM NaOAc, 2 mM DTT, 10 mM MgCl2, 4% glycerol, 0.05% Tween 20, 25 °C, 10 min; 1.25 nM RNA, 0.625 nM-20 µM protein; settings: protein: recombinant; tags: C-terminal His6 (pET21a); label: 5' 6-FAM; single strand
T1 sequence: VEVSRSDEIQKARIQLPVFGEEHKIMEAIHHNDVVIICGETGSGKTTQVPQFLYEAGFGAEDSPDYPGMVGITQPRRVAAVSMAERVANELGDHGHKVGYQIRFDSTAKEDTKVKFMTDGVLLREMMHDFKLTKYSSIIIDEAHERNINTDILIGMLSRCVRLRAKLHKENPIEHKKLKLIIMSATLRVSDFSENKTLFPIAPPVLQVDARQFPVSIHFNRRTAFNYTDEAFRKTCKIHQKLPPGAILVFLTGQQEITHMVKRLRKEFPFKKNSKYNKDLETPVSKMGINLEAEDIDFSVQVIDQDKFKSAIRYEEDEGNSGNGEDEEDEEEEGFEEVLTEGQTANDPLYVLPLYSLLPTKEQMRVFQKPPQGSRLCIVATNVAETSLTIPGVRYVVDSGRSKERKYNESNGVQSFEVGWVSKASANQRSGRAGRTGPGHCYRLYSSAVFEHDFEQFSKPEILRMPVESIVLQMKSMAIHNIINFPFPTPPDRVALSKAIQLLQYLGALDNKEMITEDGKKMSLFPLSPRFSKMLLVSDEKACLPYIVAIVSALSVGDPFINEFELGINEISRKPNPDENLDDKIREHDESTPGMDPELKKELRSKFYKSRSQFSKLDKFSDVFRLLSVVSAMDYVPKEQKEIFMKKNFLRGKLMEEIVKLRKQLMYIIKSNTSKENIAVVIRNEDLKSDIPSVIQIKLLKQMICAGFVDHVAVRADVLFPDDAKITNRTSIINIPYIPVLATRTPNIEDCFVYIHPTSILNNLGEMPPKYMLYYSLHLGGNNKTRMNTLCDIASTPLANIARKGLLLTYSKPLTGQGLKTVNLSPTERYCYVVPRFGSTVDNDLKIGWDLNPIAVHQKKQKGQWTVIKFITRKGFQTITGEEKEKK

ΔN-Dhr1-WT = biological target: T2, ΔN-Dhr1-WT (Saccharomyces cerevisiae, UniProt Q04217 376-1267); assay: as above; settings: protein: recombinant; tags: C-terminal His6 (pET21a); label: 5' 6-FAM; single strand
T2 sequence: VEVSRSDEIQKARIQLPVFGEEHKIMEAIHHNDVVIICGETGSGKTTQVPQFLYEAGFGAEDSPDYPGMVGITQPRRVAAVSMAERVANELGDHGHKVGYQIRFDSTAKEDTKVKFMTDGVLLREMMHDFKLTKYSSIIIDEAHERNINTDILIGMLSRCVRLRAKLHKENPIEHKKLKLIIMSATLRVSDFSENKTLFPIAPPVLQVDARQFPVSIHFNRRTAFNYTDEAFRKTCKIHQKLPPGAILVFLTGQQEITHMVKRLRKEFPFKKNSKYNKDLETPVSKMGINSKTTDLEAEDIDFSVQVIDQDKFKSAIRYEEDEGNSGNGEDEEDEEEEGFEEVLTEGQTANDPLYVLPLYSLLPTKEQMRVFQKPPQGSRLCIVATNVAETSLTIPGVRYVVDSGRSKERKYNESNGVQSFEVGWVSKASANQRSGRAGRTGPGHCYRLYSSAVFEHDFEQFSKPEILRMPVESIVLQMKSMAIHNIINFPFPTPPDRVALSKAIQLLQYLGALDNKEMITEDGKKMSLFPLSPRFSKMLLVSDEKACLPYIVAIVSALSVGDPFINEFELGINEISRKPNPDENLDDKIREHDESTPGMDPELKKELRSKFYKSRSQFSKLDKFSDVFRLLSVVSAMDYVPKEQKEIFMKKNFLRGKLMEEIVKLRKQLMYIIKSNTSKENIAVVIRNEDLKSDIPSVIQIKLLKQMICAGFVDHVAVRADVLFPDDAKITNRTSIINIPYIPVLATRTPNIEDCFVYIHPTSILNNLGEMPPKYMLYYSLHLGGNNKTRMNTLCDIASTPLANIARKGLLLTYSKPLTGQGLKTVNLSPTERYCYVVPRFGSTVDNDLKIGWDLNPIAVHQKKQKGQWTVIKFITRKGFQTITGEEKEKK

[2] = biological target: T3, ΔN-Dhr1-WT (Δ1 to 375-Dhr1) (Saccharomyces cerevisiae, UniProt Q04217 376-1267); assay: fluorescence polarisation; 1.25 nM 6-FAM-labelled Utp14-A′ peptide titrated with Dhr1 variants; 25 °C; 40 mM Tris–HCl pH 8.0, 40 mM KCl, 150 mM NaCl, 2 mM NaOAc, 2 mM DTT, 10 mM MgCl2, 4% glycerol, 0.05% Tween 20; saturation not reached, no Kd calculated; settings: both partners purified
T3 construct: Dhr1 (Ecm16), DEAH/RHA RNA helicase of Saccharomyces cerevisiae, residues 1-375 deleted; Cloned into pET21a(+) with a C-terminal Hisx6 tag; also called ΔN-WT; dhr1-Δ1–375 (ΔN); source: E. coli Codon+ BL21 (DE3) RIL (AJE854), purified (HisTrap FF, HiTrap Capto SP)
T3 sequence (looked up): T2 sequence

ΔN-Dhr1-ΔSKTTD [3] = biological target: T4, ΔN-Dhr1-ΔSKTTD (Saccharomyces cerevisiae, UniProt Q04217 376-1267, ΔSKTTD (aa 666–670)); assay: as above; settings: both partners purified
T4 construct: Dhr1 (Ecm16) of Saccharomyces cerevisiae, residues 1-375 deleted and the five residues SKTTD (aa 666-670) of loop 1 deleted; also called ΔN-ΔSKTTD; ΔNΔSKTTD; source: E. coli Codon+ BL21 (DE3) RIL (AJE854), purified (HisTrap FF, HiTrap Capto SP)
T4 sequence (looked up): T1 sequence

[4] = biological target: T5, ΔN-Dhr1-YCK (RecA2 surface mutant) (Saccharomyces cerevisiae, UniProt Q04217 376-1267, H593Y | R596C | E831K); assay: as above; settings: both partners purified
T5 construct: Dhr1 (Ecm16) of Saccharomyces cerevisiae, residues 1-375 deleted, with three mutations on the RecA2 surface; also called ΔN-Dhr1-RecA2; ΔN-Dhr1-RecA2-mutants; source: E. coli Codon+ BL21 (DE3) RIL (AJE854), purified (HisTrap FF, HiTrap Capto SP)
T5 sequence (looked up): T2 sequence with H218Y, R221C, E456K

UUUUUUUUUUUUUUUUUUUU (ssRNA) [U20] showed a Kd (ΔN-Dhr1-ΔSKTTD [1]) of 60 ± 10 nM and a Kd (ΔN-Dhr1-WT) of 300 ± 20 nM.

B1: Utp14-A′ (UTP14 746–780), 6-FAM-labelled peptide (peptide)
peptide: 6FAM-VFMFKQQDVIAEAFAGDDVVAEFQEEKKRVIDDED
notes: also called Utp14 fragment; source: synthetic peptide (Genscript)
B1: binds [2]; binds (ΔN-Dhr1-ΔSKTTD [3]); binds [4].
